From publication PMC12955871, “Structure‐Guided Engineering of a Promiscuous O‐Methyltransferase for a SAM Regeneration Biocatalysis Platform of Methylated Pharmaceuticals” (Advanced Science, 2025)

Assays:
Assay in all cases: HPLC product formation, Michaelis-Menten fit
Format in all cases: biochemical, Selaginella moellendorffii
CC(=O)c1ccc(O)c(O)c1O = conditions: 1.6 mM SAM, pH 8.0, 37 °C, no added SAH, crystal structure is the SAH ternary complex
[1] = test system: O=c1c(O)c(-c2ccc(O)c(O)c2)oc2cc(O)cc(O)c12; conditions: 1.6 mM SAM, pH 8.0, 37 °C
O=c1ccc2cc3ccoc3c(O)c2o1 = conditions: 1.6 mM SAM, pH 8.0, 37 °C

With SmOMT (Selaginella moellendorffii) the Km (CC(=O)c1ccc(O)c(O)c1O) was 51.7 µM, the Km [1] was 585.1 µM and the Km (O=c1ccc2cc3ccoc3c(O)c2o1) was 225.4 µM.
